Data as given in the supplement of paper PMC5998384.

Experiments:
HeLa Kyoto [1] = assay: solubility in G1/S (NP-40 vs SDS abundance) (log2 ratio); higher = more soluble; conditions: cell cycle stage: G1/S
HeLa Kyoto [2] = assay: solubility change mitosis vs G1/S (difference of NP-40 vs SDS log2 ratios) (log2 ratio difference); higher = more soluble in mitosis
HeLa Kyoto [3] = assay: thermal stability score vs G1/S (z-score of summed log2 fold changes over temperatures); higher = more thermally stable than in G1/S
HeLa Kyoto [4] = assay: melting temperature (median over replicates), in situ; higher = more thermally stable
[5] = cell cycle stage: early G1 (4.5 h after nocodazole release)
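Throughout, for melting temperature (median over replicates), in situ: HeLa Kyoto cells synchronized by double thymidine or nocodazole block, proteins quantified by TMT10plex mass spectrometry, three independent biological replicates.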
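Throughout, for solubility change mitosis vs G1/S (difference of NP-40 vs SDS log2 ratios): synchronized HeLa Kyoto cells (double thymidine block for G1/S, nocodazole release for mitosis), protein amounts in NP-40 versus SDS lysates quantified by mass spectrometry, three biological replicates.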
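Throughout, for solubility in G1/S (NP-40 vs SDS abundance): HeLa Kyoto cells arrested at G1/S by double thymidine block, proteins quantified by TMT10plex mass spectrometry in mild NP-40 versus SDS extracts, three biological replicates.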
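Throughout, for thermal stability score vs G1/S (z-score of summed log2 fold changes over temperatures): synchronized HeLa Kyoto cells, proteins quantified by TMT10plex mass spectrometry, three biological replicates, mitosis taken 0.5 h after nocodazole release, G1/S directly after double thymidine block.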

Sequence of PTBP3 (chain, as listed by the source): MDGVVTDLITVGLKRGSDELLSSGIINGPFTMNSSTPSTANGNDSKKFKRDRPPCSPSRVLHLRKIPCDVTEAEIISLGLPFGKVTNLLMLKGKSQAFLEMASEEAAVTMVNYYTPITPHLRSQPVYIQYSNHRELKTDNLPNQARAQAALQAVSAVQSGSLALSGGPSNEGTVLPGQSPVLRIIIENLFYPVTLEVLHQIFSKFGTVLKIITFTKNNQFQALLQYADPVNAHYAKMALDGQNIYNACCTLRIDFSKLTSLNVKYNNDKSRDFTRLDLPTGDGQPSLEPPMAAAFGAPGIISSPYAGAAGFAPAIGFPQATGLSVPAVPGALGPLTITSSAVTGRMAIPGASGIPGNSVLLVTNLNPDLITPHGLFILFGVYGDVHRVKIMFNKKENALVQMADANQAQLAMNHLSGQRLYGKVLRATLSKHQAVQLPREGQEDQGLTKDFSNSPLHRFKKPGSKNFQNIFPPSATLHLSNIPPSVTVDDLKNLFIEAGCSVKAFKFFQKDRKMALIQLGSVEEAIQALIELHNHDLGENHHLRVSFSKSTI

Substance	solubility in G1/S (log2) (HeLa Kyoto [1])	solubility change mitosis (log2) (HeLa Kyoto [2])	thermal stability score (HeLa Kyoto [3]; [5])	thermal stability score (HeLa Kyoto [3]; cell cycle stage: mitosis)	melting temperature (HeLa Kyoto [4]; cell cycle stage: G1/S)	melting temperature (HeLa Kyoto [4]; cell cycle stage: mitosis)
MEETIKDPPTSAVLLDHCHFSQVIFNSVEKFYIPGGDVTCHYTFTQHFIPRRKDWIGIFRVGWKTTREYYTFMWVTLPIDLNNKSAKQQEVQFKAYYLPKDDEYYQFCYVDEDGVVRGASIPFQFRPENEEDILVVTTQGEVEEIEQHNKELCKENQELKDSCISLQKQNSDMQAELQKKQEELETLQSINKKLELKVKEQKDYWETELLQLKEQNQKMSSENEKMGIRVDQLQAQLSTQEKEMEKLVQGDQDKTEQLEQLKKENDHLFLSLTEQRKDQKKLEQTVEQMKQNETTAMKKQQELMDENFDLSKRLSENEIICNALQRQKERLEGENDLLKRENSRLLSYMGLDFNSLPYQVPTSDEGGARQNPGLAYGNPYSGIQESSSPSPLSIKKCPICKADDICDHTLEQQQMQPLCFNCPICDKIFPATEKQIFEDHVFCHSL [CALCOCO2]	0.203	-0.0722	-0.458	-0.851	50.5 °C	51 °C
MQSWSRVYCSLAKRGHFNRISHGLQGLSAVPLRTYADQPIDADVTVIGSGPGGYVAAIKAAQLGFKTVCIEKNETLGGTCLNVGCIPSKALLNNSHYYHMAHGKDFASRGIEMSEVRLNLDKMMEQKSTAVKALTGGIAHLFKQNKVVHVNGYGKITGKNQVTATKADGGTQVIDTKNILIATGSEVTPFPGITIDEDTIVSSTGALSLKKVPEKMVVIGAGVIGVELGSVWQRLGADVTAVEFLGHVGGVGIDMEISKNFQRILQKQGFKFKLNTKVTGATKKSDGKIDVSIEAASGGKAEVITCDVLLVCIGRRPFTKNLGLEELGIELDPRGRIPVNTRFQTKIPNIYAIGDVVAGPMLAHKAEDEGIICVEGMAGGAVHIDYNCVPSVIYTHPEVAWVGKSEEQLKEEGIEYKVGKFPFAANSRAKTNADTDGMVKILGQKSTDRVLGAHILGPGAGEMVNEAALALEYGASCEDIARVCHAHPTLSEAFREANLAASFGKSINF [DLD]	-0.00434	-0.0404	-0.545	-2.94	58.6 °C	56.8 °C
MSLICSISNEVPEHPCVSPVSNHVYERRLIEKYIAENGTDPINNQPLSEEQLIDIKVAHPIRPKPPSATSIPAILKALQDEWDAVMLHSFTLRQQLQTTRQELSHALYQHDAACRVIARLTKEVTAAREALATLKPQAGLIVPQAVPSSQPSVVGAGEPMDLGELVGMTPEIIQKLQDKATVLTTERKKRGKTVPEELVKPEELSKYRQVASHVGLHSASIPGILALDLCPSDTNKILTGGADKNVVVFDKSSEQILATLKGHTKKVTSVVFHPSQDLVFSASPDATIRIWSVPNASCVQVVRAHESAVTGLSLHATGDYLLSSSDDQYWAFSDIQTGRVLTKVTDETSGCSLTCAQFHPDGLIFGTGTMDSQIKIWDLKERTNVANFPGHSGPITSIAFSENGYYLATAADDSSVKLWDLRKLKNFKTLQLDNNFEVKSLIFDQSGTYLALGGTDVQIYICKQWTEILHFTEHSGLTTGVAFGHHAKFIASTGMDRSLKFYSL [PRPF19]	-0.473	0.214	-0.506	-3.39	56.5 °C	54 °C
PTBP3	-0.19	0.15	0.736	1.3	46.6 °C	48 °C
MAAPVDLELKKAFTELQAKVIDTQQKVKLADIQIEQLNRTKKHAHLTDTEIMTLVDETNMYEGVGRMFILQSKEAIHSQLLEKQKIAEEKIKELEQKKSYLERSVKEAEDNIREMLMARRAQ [PFDN1]	0.242	0.291	-5.42	-7.79	52.9 °C	52.4 °C
MPFPFGKSHKSPADIVKNLKESMAVLEKQDISDKKAEKATEEVSKNLVAMKEILYGTNEKEPQTEAVAQLAQELYNSGLLSTLVADLQLIDFEGKKDVAQIFNNILRRQIGTRTPTVEYICTQQNILFMLLKGYESPEIALNCGIMLRECIRHEPLAKIILWSEQFYDFFRYVEMSTFDIASDAFATFKDLLTRHKLLSAEFLEQHYDRFFSEYEKLLHSENYVTKRQSLKLLGELLLDRHNFTIMTKYISKPENLKLMMNLLRDKSRNIQFEAFHVFKVFVANPNKTQPILDILLKNQAKLIEFLSKFQNDRTEDEQFNDEKTYLVKQIRDLKRPAQQEA [CAB39]	0.0309	-0.178	0.362	2.14	54.3 °C	55.4 °C
